Measurements taken from patent US20230340136A1, “TREATMENT OF CLL” (NOVARTIS AG, priority 2020, published 2023).

Columns and labels:
BTK^C481S = BTK^C481S (Homo sapiens, UniProt Q06187, C481S); settings: cited from earlier work
[1] = Phase Ib study CVAY736Y2102: pharmacokinetics of VAY736; assay type: in vivo, human; settings: in combination with ibrutinib
Excerpt: (§1) The dosing cycle is 28 days. […] During the dose expansion part of the study, ibrutinib will be continued at the same dose schedule as tolerated before study enrollment, see exclusion criteria above for additional information on dose level.

BAFF receptor = biological target: T1, BAFF receptor (Homo sapiens, UniProt Q96RJ3); experiment: Phase Ib study CVAY736Y2102: BAFF receptor occupancy; assay type: in vivo; settings: VAY736 doses of 3 mg/kg or above
T1 construct: endogenous in cells; host or cells: B cells / tissue of CLL patients in study CVAY736Y2102 (for A6: simulated by a PK/PD model, not measured)
Excerpt: as §1

BAFF = experiment: Phase Ib study CVAY736Y2102: free (soluble) BAFF; design: species or system human; settings: in vivo
Excerpt: as §1

BTK^C481S, sequence (Q06187 whole entry C481S): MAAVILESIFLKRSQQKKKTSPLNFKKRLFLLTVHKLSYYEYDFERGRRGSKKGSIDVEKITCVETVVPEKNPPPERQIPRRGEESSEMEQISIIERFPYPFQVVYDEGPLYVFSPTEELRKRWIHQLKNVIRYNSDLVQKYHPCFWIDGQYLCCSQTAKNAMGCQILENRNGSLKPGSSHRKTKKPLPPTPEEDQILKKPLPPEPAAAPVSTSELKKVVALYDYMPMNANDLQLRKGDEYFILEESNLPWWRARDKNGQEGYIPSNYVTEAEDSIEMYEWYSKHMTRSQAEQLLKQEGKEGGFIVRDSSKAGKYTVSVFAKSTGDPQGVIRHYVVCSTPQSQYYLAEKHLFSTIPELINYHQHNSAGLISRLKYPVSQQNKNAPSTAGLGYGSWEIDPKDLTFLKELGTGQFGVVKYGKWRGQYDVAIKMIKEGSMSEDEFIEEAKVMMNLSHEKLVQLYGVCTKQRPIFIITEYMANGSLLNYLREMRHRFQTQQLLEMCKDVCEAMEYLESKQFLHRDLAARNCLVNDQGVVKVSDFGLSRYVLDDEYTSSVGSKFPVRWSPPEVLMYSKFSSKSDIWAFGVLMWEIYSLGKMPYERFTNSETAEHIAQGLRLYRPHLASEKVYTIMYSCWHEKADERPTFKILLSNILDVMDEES

Molecule | activity against ibrutinib-resistant BTK^C481S mutation (BTK^C481S) | VAY736 concentration: dose dependence [1] | dose at which linear PK achieved [1] | Tissue receptor occupancy (BAFF receptor) | Free BAFF (BAFF)
C[C@H]1CN(C2COC2)CCN1c1ccc(Nc2cc(-c3ccnc(N4CCn5c(cc6c5CC(C)(C)C6)C4=O)c3CO)cn(C)c2=O)nc1 [fenebrutinib] | active against ibrutinib-resistant BTK^C481S | – | – | – | –
VAY736: non-fucosylated human IgG1 kappa anti-BAFFR antibody, heavy chain SEQ ID NO: 9, light chain SEQ ID NO: 10 | – | increased with dose | ≥ 3 mg/kg | > 99% | accumulated to steady state with no dose relationship
